Test results: the supplement of paper PMC11246515
± gives the standard deviation of the averaged measurements.

Assay: total protein half-life in vivo (active degradation + dilution); higher = more stable protein
[1] = E. coli NCM3722 delta-clpP delta-lon delta-hslV, growth: N-lim chemostat, doubling time 6 h
[2] = E. coli NCM3722 delta-clpP, growth: N-lim chemostat, doubling time 6 h
[3] = E. coli NCM3722 delta-hslV, growth: N-lim chemostat, doubling time 6 h
[4] = E. coli NCM3722 delta-lon, growth: N-lim chemostat, doubling time 6 h
[5] = E. coli NCM3722 delta-smpB, growth: N-lim chemostat, doubling time 6 h
[6] = wild type E. coli NCM3722, growth: C-lim chemostat, doubling time 3 h
[7] = wild type E. coli NCM3722, growth: C-lim chemostat, doubling time 6 h
[8] = wild type E. coli NCM3722, growth: C-lim chemostat, doubling time 12 h
[9] = wild type E. coli NCM3722, growth: N-lim chemostat, doubling time 6 h
[10] = wild type E. coli NCM3722, growth: N-lim chemostat, doubling time 12 h
[11] = wild type E. coli NCM3722, growth: P-lim chemostat, doubling time 6 h
[12] = wild type E. coli NCM3722, growth: P-lim chemostat, doubling time 12 h

Sequence | total protein half-life in vivo [1] [h] | total protein half-life in vivo [2] [h] | total protein half-life in vivo [3] [h] | total protein half-life in vivo [4] [h] | total protein half-life in vivo [5] [h] | total protein half-life in vivo [6] [h] | total protein half-life in vivo [7] [h] | total protein half-life in vivo [8] [h] | total protein half-life in vivo [9] [h] | total protein half-life in vivo [10] [h] | total protein half-life in vivo [11] [h] | total protein half-life in vivo [12] [h]
MPRANEIKKGMVLNYNGKLLLVKDIDIQSPTARGAATLYKMRFSDVRTGLKVEERFKGDDIVDTVTLTRRYVDFSYVDGNEYVFMDKEDYTPYTFTKDQIEEELLFMPEGGMPDMQVLTWDGQLLALELPQTVDLEIVETAPGIKGASASARNKPATLSTGLVIQVPEYLSPGEKIRIHIEERRYMGRAD [P0A6N8] | 5.17 ± 0.42 | 4.37 ± 0.34 | 4.21 ± 0.071 | 5.35 ± 0.38 | 4.45 ± 0.71 | 3.25 ± 0.46 | 5.42 ± 0.098 | 11.1 ± 0.96 | 4.59 ± 0.062 | 6.944 ± 0.044 | 5.26 ± 0.26 | 9.67 ± 0.66
MTTQYGFFIDSSRCTGCKTCELACKDYKDLTPEVSFRRIYEYAGGDWQEDNGVWHQNVFAYYLSISCNHCEDPACTKVCPSGAMHKREDGFVVVDEDVCIGCRYCHMACPYGAPQYNETKGHMTKCDGCYDRVAEGKKPICVESCPLRALDFGPIDELRKKHGDLAAVAPLPRAHFTKPNIVIKPNANSRPTGDTTGYLANPKEV | 5.26 |  |  |  |  |  | 6.7 |  |  |  |  | 
MKTETPSVKIVAITADEAGQRIDNFLRTQLKGVPKSMIYRILRKGEVRVNKKRIKPEYKLEAGDEVRIPPVRVAEREEEAVSPHLQKVAALADVILYEDDHILVLNKPSGTAVHGGSGLSFGVIEGLRALRPEARFLELVHRLDRDTSGVLLVAKKRSALRSLHEQLREKGMQKDYLALVRGQWQSHVKSVQAPLLKNILQSGERIVRVSQEGKPSETRFKVEERYAFATLVRCSPVTGRTHQIRVHTQYAGHPIAFDDRYGDREFDRQLTEAGTGLNRLFLHAAALKFTHPGTGEVMRIEAPMDEGLKRCLQKLRNAR [P0AA39] | 5.63 ± 0.067 | 5.2 ± 0.19 | 5.84 ± 1 | 5.68 ± 0.26 | 5.43 ± 0.88 | 3.01 ± 0.092 | 5.78 ± 0.14 | 9.77 ± 0.8 | 5.21 ± 0.31 | 9.13 ± 0.59 | 5.56 ± 0.089 | 11.6 ± 0.92
MKIFSVRQTVLPALLVLSPVVFAADEQTMIVSAAPQVVSELDTPAAVSVVDGEEMRLATPRINLSESLTGVPGLQVQNRQNYAQDLQLSIRGFGSRSTYGIRGIRLYVDGIPATMPDGQGQTSNIDLSSVQNVEVLRGPFSALYGNASGGVMNVTTQTGQQPPTIEASSYYGSFGSWRYGLKATGATGDGTQPGDVDYTVSTTRFTTHGYRDHSGAQKNLANAKLGVRIDEASKLSLIFNSVDIKADDPGGLTKAEWKANPQQAPRAEQYDTRKTIKQTQAGLRYERSLSSRDDMSVMMYAGERETTQYQSIPMAPQLNPSHAGGVITLQRHYQGIDSRWTHRGELGVPVTFTTGLNYENMSENRKGYNNFRLNSGMPEYGQKGELRRDERNLMWNIDPYLQTQWQLSEKLSLDAGVRYSSVWFDSNDHYVTPGNGDDSGDASYHKWLPAGSLKYAMTDAWNIYLAAGRGFETPTINELSYRADGQSGMNLGLKPSTNDTIEIGSKTRIGDGLLSLALFQTDTDDEIVVDSSSGGRTTYKNAGKTRRQGAELAWDQRFAGDFRVNASWTWLDATYRSNVCNEQDCNGNRMPGIARNMGFASIGYVPEDGWYAGTEARYMGDIMADDENTAKAPSYTLVGLFTGYKYNYHNLTVDLFGRVDNLFDKEYVGSVIVNESNGRYYEPSPGRNYGVGMNIAWRFE | 5.463 ± 0.043 | 6.48 ± 0.072 |  |  | 5.98 ± 0.44 |  | 6.21 ± 0.33 | 13.6 ± 1 | 6.02 ± 0.5 | 12.9 ± 0.56 | 5.34 ± 0.089 | > 16
MYRIVLGKVSTLSAAPLPPGLREQAPQGPRRERWLAGRALLSHTLSPLPEIIYGEQGKPAFAPEMPLWFNLSHSGDDIALLLSDEGEVGCDIEVIRPRANWRWLANAVFSLGEHAEMDAVHPDQQLEMFWRIWTRKEAIVKQRGGSAWQIVSVDSTYHSSLSVSHCQLENLSLAICTPTPFTLTADSVQWIDSVN | 4.86 ± 0.67 |  | 3.56 ± 0.17 | 3.99 ± 0.64 | 2.53 ± 0.075 | 2.55 ± 0.032 | 4.94 ± 0.18 | 8.278 ± 0.081 | 3.78 ± 0.16 | 6.11 ± 0.44 | 5.86 ± 0.65 | 11.1 ± 2.4
MQNKLASGARLGRQALLFPLCLVLYEFSTYIGNDMIQPGMLAVVEQYQAGIDWVPTSMTAYLAGGMFLQWLLGPLSDRIGRRPVMLAGVVWFIVTCLAILLAQNIEQFTLLRFLQGISLCFIGAVGYAAIQESFEEAVCIKITALMANVALIAPLLGPLVGAAWIHVLPWEGMFVLFAALAAISFFGLQRAMPETATRIGEKLSLKELGRDYKLVLKNGRFVAGALALGFVSLPLLAWIAQSPIIIITGEQLSSYEYGLLQVPIFGALIAGNLLLARLTSRRTVRSLIIMGGWPIMIGLLVAAAATVISSHAYLWMTAGLSIYAFGIGLANAGLVRLTLFASDMSKGTVSAAMGMLQMLIFTVGIEISKHAWLNGGNGLFNLFNLVNGILWLSLMVIFLKDKQMGNSHEG [P0AEY8] |  |  |  |  |  | 3.11 |  |  |  |  | 5.65 ± 0.22 | 11 ± 2.6
MKKLLPILIGLSLSGFSSLSQAENLMQVYQQARLSNPELRKSAADRDAAFEKINEARSPLLPQLGLGADYTYSNGYRDANGINSNATSASLQLTQSIFDMSKWRALTLQEKAAGIQDVTYQTDQQTLILNTATAYFNVLNAIDVLSYTQAQKEAIYRQLDQTTQRFNVGLVAITDVQNARAQYDTVLANEVTARNNLDNAVEQLRQITGNYYPELAALNVENFKTDKPQPVNALLKEAEKRNLSLLQARLSQDLAREQIRQAQDGHLPTLDLTASTGISDTSYSGSKTRGAAGTQYDDSNMGQNKVGLSFSLPIYQGGMVNSQVKQAQYNFVGASEQLESAHRSVVQTVRSSFNNINASISSINAYKQAVVSAQSSLDAMEAGYSVGTRTIVDVLDATTTLYNAKQELANARYNYLINQLNIKSALGTLNEQDLLALNNALSKPVSTNPENVAPQTPEQNAIADGYAPDSPAPVVQQTSARTTTSNGHNPFRN | 6.4 ± 0.68 |  | 7.27 ± 0.62 | 6.96 ± 0.25 | 6.09 ± 0.28 | 3.15 ± 0.091 | 6.46 ± 0.065 | 12.5 ± 0.56 | 5.95 ± 0.79 | 13.3 ± 0.99 | 5.09 ± 0.13 | 10.7 ± 0.21
MDIVFIEQLSVITTIGVYDWEQTIEQKLVFDIEMAWDNRKAAKSDDVADCLSYADIAETVVSHVEGARFALVERVAEEVAELLLARFNSPWVRIKLSKPGAVARAANVGVIIERGNNLKENN [P0AC16] | 5.71 ± 0.35 | 5.86 | 5.4 ± 0.43 | 5.47 ± 0.74 |  | 3.26 ± 0.37 | 6.02 ± 0.37 | 11.8 ± 1.3 | 5.39 ± 0.56 | 10.7 ± 2.2 | 6.4 ± 0.65 | 12.39 ± 0.043
